From paper PMC6284806 (Nanotechnology, 2015)

Target: the molecule itself
Experiment: AUC

B1: Horse spleen apoferritin (natural protein, UniProt P02791 1-175, looked up)
chain: MSSQIRQNYSTEVEAAVNRLVNLYLRASYTYLSLGFYFDRDDVALEGVCHFFRELAEEKREGAERLLKMQNQRGGRALFQDLQKPSQDEWGTTLDAMKAAIVLEKSLNQALLDLHALGSAQADPHLCDFLESHFLDEEVKLIKKMGDHLTNIQRLVGSQAGLGEYLFERLTLKHD
B1 was tested, and the “stoichiometry N” value was 24.
